Measured values: paper PMC6780499, “Characterization, Recombinant Production and Structure-Function Analysis of NvCI, A Picomolar Metallocarboxypeptidase Inhibitor from the Marine Snail Nerita versicolor” (Marine Drugs, 2019)
Like-named read-outs stand apart in the source and are kept apart here. No end group written: not given here.

Assays:
[1] = target: T1, bCPA1 (Bos taurus, UniProt P00730); assay: Ki determination, tight-binding inhibition of metallocarboxypeptidase; assay type: biochemical, bovine; conditions: natural isoforms; apparent Ki, without correction by competing assays; read-out: derived Ki towards bCPA (apparent Ki values)
T1 sequence (P00730 111-419): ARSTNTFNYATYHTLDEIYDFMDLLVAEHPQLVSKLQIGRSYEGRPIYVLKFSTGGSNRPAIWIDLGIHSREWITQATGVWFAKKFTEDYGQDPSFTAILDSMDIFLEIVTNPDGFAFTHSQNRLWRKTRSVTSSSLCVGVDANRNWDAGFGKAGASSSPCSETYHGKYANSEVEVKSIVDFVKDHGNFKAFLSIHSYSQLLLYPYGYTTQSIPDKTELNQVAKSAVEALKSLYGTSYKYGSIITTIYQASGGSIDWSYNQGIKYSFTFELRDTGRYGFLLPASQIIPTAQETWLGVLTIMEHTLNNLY
Procedure: Inhibitory activities against CPA- and CPB-type forms (bovine and human variants of CPA1, CPA2, CPA4, CPB1, and TAFI) were assayed for all extracts, subject to the experimental conditions that enzyme (E), substrate (S) and inhibitor (I) concentrations as well as the [I]/[E] ratio and preincubation time followed the requirements for tight-binding inhibitor assays. Similar approaches were followed to measure the activities of proteases of different catalytic types, like pepsin, papain, trypsin and subtilisin [45, 46, 47, 48]. All assays were performed in triplicate at 25 °C in a multiplexed manner. For 96-well assays an iEMS spectrophotometer reader/dispenser FM (Labsystems, Finland) was used with a final reaction volume of 250 μL. For cuvette assays, a Cary 400 Bio spectrophotometer (Varian Inc., Palo Alto, CA, USA) spectrophotometer was used with a final reaction volume of 1 ml. The reactions were followed at 5 s intervals for 5 min and recorded as initial velocities. In the protease inhibition assays, mixtures of activity buffer, biological sample and enzyme were preincubated at 25 °C for 10min, before substrate addition. The assay conditions were as follows: for CPA-like enzymes, 7.0nM CPA, 0.1mM AAFP substrate in 20mM Tris-HCl pH 7.5, 500mMNaCl, 1% v/v dimethyl sulfoxide (DMSO), 0.05% w/v BRIJ-35 was used. For CPB-like enzymes, CPB 3.0nM CPB, 0.1mM AAFA substrate and activity buffer of 20 mM Tris-HCl pH [50].
The Ki values of natural and recombinant NvCI against bCPA1, hCPA1, hCPA2, rat CPA3, hCPA4, hCPB1, bTAFI, hTAFI, hCPD and hCPZ were determined by measuring the enzymatic residual activity (Vi/V0 = a) at different inhibitor concentrations and using a fixed enzyme and substrate concentrations as described above, where vi and v0 are the fraction of enzymatic activity in the presence and absence of inhibitor, respectively, in terms of initial velocities. The determination of Ki values was carried out on equilibrium conditions ([E0]/Ki ≤ 10), using a previously determined preincubation time of 15 min, required to establish enzyme-inhibitor equilibrium. Working temperature was 37 °C. The best estimates of Ki values were obtained by fitting the experimental data to the equation for tight-binding inhibitors by non-linear regression using the GraphPad Prisma 5 software (GraphPad Software, Inc., San Diego, CA, USA) at p < 0.05. The real Ki values against each of these A/B-type MCPs were calculated according to the equation described by Morrison and Copeland [19, 20].

[2] = tested on: HepG2 cells; assay: Cellular uptake by confocal laser scanning microscopy; assay type: cell-based, human; conditions: HepG2, 20 µg/ml, 4 h at 37 °C, CLSM, LysoTracker and Hoechst staining
Procedure: Recombinant NvCI was fluorescently labelled with an Alexa Fluor 488 Protein Labeling Kit (Molecular Probes, Eugene, OR, USA). HepG2 cells were seeded in a 35 mm glass-bottom culture dish (MatTek Corporation, Ashland, MA, USA) at a density of 4 × 10^5 cells/well and incubated for 24 h. The cells were incubated with 20 µg/ml Alexa 488-NvCI for 4 h at 37 °C. Prior to imaging, lysosomes and nuclei were stained with Lysotracker Red and Hoechst (Invitrogen, Carlsbard, CA, USA), respectively, for 90 or 10 min.

[3] = target: T1, bCPA1; conditions: cited from earlier work
From the text: (§1) Table 2 Ki values of various proteinaceous metallocarboxypeptidases (MCPs) inhibitors. | column: Ki (nM) / rPCI (a); Ki (nM) / rTCI (b); Ki (nM) / rLCI (c); Ki (nM) / rACI (d); Ki (nM) / rhuman latexin (e)

[4] = target: T2, hCPA1 (Homo sapiens, UniProt P15085); conditions: cited from earlier work
T2 sequence (P15085 111-419): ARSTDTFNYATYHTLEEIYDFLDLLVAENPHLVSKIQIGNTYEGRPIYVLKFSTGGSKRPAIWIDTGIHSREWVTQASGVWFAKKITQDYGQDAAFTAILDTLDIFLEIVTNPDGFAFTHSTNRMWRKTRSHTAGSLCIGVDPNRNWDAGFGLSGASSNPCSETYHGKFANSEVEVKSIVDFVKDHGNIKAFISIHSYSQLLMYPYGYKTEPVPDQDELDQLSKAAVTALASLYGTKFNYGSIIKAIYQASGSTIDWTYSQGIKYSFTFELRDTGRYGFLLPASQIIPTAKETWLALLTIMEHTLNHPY
From the text: as §1

[5] = target: T3, hCPA2 (Homo sapiens, UniProt P48052); conditions: cited from earlier work
T3 sequence (P48052 115-419): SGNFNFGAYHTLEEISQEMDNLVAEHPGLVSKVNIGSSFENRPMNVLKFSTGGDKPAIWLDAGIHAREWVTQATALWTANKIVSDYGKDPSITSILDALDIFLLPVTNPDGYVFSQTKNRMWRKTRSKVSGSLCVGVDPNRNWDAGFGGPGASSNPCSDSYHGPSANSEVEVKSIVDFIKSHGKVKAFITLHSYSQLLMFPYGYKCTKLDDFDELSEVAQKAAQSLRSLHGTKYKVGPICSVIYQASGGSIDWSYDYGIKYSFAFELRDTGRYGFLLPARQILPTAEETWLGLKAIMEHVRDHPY
From the text: as §1

[6] = target: T4, hCPA4 (Homo sapiens, UniProt Q9UI42); conditions: cited from earlier work
T4 sequence (Q9UI42 114-421): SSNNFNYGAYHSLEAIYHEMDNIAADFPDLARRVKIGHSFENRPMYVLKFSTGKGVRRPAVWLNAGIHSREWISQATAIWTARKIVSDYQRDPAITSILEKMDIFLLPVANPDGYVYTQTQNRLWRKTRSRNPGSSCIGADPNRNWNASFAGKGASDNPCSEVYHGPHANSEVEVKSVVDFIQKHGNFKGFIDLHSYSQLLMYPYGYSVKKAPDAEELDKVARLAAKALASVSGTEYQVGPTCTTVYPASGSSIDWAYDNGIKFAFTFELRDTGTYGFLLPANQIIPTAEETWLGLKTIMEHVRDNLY
From the text: as §1

[7] = target: T5, hCPB (Homo sapiens, UniProt P15086); conditions: cited from earlier work
T5 sequence (P15086 111-417): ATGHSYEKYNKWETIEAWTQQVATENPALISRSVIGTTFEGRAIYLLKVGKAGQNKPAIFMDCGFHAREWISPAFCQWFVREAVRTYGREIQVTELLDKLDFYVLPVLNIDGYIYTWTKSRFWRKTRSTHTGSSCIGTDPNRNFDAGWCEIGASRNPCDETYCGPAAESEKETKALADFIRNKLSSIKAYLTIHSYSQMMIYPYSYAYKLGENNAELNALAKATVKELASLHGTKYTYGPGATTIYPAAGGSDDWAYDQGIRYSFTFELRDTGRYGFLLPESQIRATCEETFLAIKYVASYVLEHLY
From the text: Table 2 Ki values of various proteinaceous metallocarboxypeptidases (MCPs) inhibitors. | column: Ki (nM) / rPCI (a); Ki (nM) / rTCI (b); Ki (nM) / rLCI (c); Ki (nM) / rhuman latexin (e)

[8] = target: T6, hTAFI (Homo sapiens, UniProt Q96IY4); conditions: cited from earlier work
T6 sequence (Q96IY4 115-423): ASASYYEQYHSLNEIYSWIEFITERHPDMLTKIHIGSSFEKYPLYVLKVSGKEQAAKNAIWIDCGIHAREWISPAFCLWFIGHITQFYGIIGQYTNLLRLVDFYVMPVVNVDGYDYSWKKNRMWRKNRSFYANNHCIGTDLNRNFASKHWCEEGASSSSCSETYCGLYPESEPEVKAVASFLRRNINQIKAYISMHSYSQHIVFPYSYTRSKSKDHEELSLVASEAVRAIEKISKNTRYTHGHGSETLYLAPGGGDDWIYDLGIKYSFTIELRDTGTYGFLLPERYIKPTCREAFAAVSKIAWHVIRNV
From the text: Table 2 Ki values of various proteinaceous metallocarboxypeptidases (MCPs) inhibitors. | column: Ki (nM) / rPCI (a); Ki (nM) / rTCI (b); Ki (nM) / rACI (d); Ki (nM) / rhuman latexin (e)

[9] = target: T7, pCPB (Sus scrofa, UniProt P09955); conditions: ref Arolas et al., 2004 [21]; cited from earlier work
T7 sequence (P09955 111-416): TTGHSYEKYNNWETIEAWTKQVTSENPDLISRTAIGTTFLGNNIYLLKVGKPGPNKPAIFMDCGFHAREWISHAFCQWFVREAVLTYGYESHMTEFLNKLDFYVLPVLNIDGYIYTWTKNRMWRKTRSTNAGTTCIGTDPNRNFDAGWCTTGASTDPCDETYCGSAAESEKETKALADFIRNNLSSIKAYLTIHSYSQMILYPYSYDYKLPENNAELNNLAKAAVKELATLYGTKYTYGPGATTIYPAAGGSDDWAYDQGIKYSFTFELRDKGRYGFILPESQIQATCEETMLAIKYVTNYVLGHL
From the text: Table 2 Ki values of various proteinaceous metallocarboxypeptidases (MCPs) inhibitors. | column: Ki (nM) / rPCI (a); Ki (nM) / rTCI (b); Ki (nM) / rLCI (c)

NvCId: minor natural isoform, lacks the N-terminal Phe as compared to NvCIb (HVPDDRPCIKPGRCPLVPDATCTFVCKAADNDFGYECQHVWTFEGQRVGCYA; three intrachain disulphides)
Ki [1]: 0.022 ± 0.001 nM

NvCIc: minor natural isoform, lacks the N-terminal Phe as compared to NvCIa (HVPDDRPCINPGRCPLVPDATCTFVCKAADNDFGYECQHVWTFEGQRVGCYA; three intrachain disulphides)
Ki [1]: 0.049 ± 0.002 nM

NvCIb: natural isoform of NvCI with N→K substitution at the 11th residue (FHVPDDRPCIKPGRCPLVPDATCTFVCKAADNDFGYECQHVWTFEGQRVGCYA; three intrachain disulphides)
Ki [1]: 0.038 ± 0.002 nM

Alexa488-labelled NvCI: recombinant NvCI fluorescently labelled with an Alexa Fluor 488 Protein Labeling Kit (FHVPDDRPCINPGRCPLVPDATCTFVCKAADNDFGYECQHVWTFEGQRVGCYA; ends and bridges not checked; also: Alexa Fluor 488 label; UniProt P86912 1-53, looked up)
cellular uptake / internalization [2]: internalized NvCI was distributed through the cytoplasm

B1: rhuman latexin: recombinant human latexin, larger (19–22 kDa) endogenous protein inhibitor of carboxypeptidases (protein, UniProt Q9BS40 1-222, looked up)
Latexin: MEIPPTNYPASRAALVAQNYINYQQGTPHRVFEVQKVKQASMEDIPGRGHKYHLKFAVEEIIQKQVKVNCTAEVLYPSTGQETAPEVNFTFEGETGKNPDEEDNTFYQRLKSMKEPLEAQNIPDNFGNVSPEMTLVLHLAWVACGYIIWQNSTEDTWYKMVKIQTVKQVQRNDDFIELDYTILLHNIASQEIIPWQMQVLWHPQYGTKVKHNSRLPKEVQLE
Ki ([3]; ref Pallarès et al., 2005 [15]): 1.2 ± 0.2 nM
Ki ([4]; ref Pallarès et al., 2005 [15]): 1.6 ± 0.2 nM
Ki ([5]; ref Pallarès et al., 2005 [15]): 3.5 ± 0.3 nM
Ki ([6]; ref Pallarès et al., 2005 [15]): 3 ± 0.3 nM
Ki ([7]; ref Pallarès et al., 2005 [15]): 1.1 ± 0.1 nM
Ki ([8]; ref Pallarès et al., 2005 [15]): 1.8 ± 0.3 nM

B2: rACI: recombinant carboxypeptidase inhibitor from the intestinal parasite Ascaris suum (protein)
chain: VRKCLSDTDCTNGEKCVQKNKICSTIVEIQRCEKEHFTIPCKSNNDCQVWAHEKICNKGCCWDLL
modifications: intrachain disulphides
Ki ([3]; ref Sanglas et al., 2009 [10]): 2.4 ± 0.3 nM
Ki ([4]; ref Sanglas et al., 2009 [10]): 1.6 ± 0.2 nM
Ki ([5]; ref Sanglas et al., 2009 [10]): 2.5 ± 0.2 nM
Ki ([6]; ref Sanglas et al., 2009 [10]): 23.9 ± 3.1 nM
Ki ([8]; ref Sanglas et al., 2009 [10]): 42 ± 1.7 nM

B3: rLCI: recombinant carboxypeptidase inhibitor from the medical leech Hirudo medicinalis (protein, UniProt P81511 16-81, looked up)
Metallocarboxypeptidase …: SHTPDESFLCYQPDQVCCFICRGAAPLPSEGECNPHPTAPWCREGAVEWVPYSTGQCRTTCIPYVE
Ki ([3]; ref Arolas et al., 2004 [21]): 1.1 ± 0.2 nM
Ki ([4]; ref Arolas et al., 2004 [21]): 1.3 ± 0.4 nM
Ki ([5]; ref Arolas et al., 2004 [21]): 4.5 ± 0.6 nM
Ki ([6]; ref Tanco et al., 2010 [22]): 7.3 ± 0.4 nM
Ki [9]: 2.4 ± 0.5 nM
Ki ([7]; ref Arolas et al., 2004 [21]): 1.2 ± 0.3 nM
